Here are results for two molecules from paper PMC7412237 (Molecules, 2020).

Common to all, as to settings: both partners purified
One assay concerns the target T1, wt-p53 (1–321 aa) (human, UniProt P04637 1-321).
T1 construct: p53, human, residues 1-321, cloned into pET23; also called p53-wt; source: E. coli BL21 (DE3) RIL, purified (Ni-NTA, gel filtration)
Description: ITC; Microcal iTC200, 25 °C; 0.012–0.030 mM p53 in the cell, 0.1–0.3 mM Mdm2 or MdmX in the syringe; 20 injections; single set of sites; in duplicate.

A further assay has as its target (N66A)PD-1 (human, UniProt Q15116 33-150, C93S | N66A, RED-NHS fluorescent label (in the MST); uniformly 15N-labelled (in the NMR)). Nature of the assay: MST; PD-1 or mutant labelled with RED-NHS, kept at 20 nM; unlabelled PD-L1 diluted from 183 µM to 416 nM; 50 mM Tris-HCl pH 7.6, 150 mM NaCl, 10 mM MgCl2, 0.05% Tween-20; 2 h at RT.
Assay [1] addresses human wt-PD-1 (33–150 aa, C93S mutation) (human, UniProt Q15116 33-150, C93S, RED-NHS fluorescent label (in the MST); uniformly 15N-labelled (in the NMR)). The assay is described as above.

Sequence of human wt-PD-1 (33–150 aa, C93S mutation) (Q15116 33-150 C93S): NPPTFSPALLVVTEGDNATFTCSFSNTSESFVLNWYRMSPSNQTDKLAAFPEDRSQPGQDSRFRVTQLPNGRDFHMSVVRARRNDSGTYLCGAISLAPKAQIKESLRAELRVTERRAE
Sequence of (N66A)PD-1 (Q15116 33-150 N66A/C93S): as the sequence (Q15116 33-150 C93S) above, with N34A counted along it
T1 sequence (P04637 1-321): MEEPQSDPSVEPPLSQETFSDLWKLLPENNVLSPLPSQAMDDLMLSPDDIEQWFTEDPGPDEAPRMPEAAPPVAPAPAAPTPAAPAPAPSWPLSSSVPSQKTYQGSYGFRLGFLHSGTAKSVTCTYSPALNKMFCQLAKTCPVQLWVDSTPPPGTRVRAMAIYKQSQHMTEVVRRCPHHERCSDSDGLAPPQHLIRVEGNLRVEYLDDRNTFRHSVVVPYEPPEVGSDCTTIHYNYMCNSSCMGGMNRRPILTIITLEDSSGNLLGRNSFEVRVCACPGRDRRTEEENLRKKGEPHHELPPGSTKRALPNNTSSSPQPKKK

B1: recombinant human Mdm2 (1–125 aa) (domain or fragment, UniProt Q00987 1-125, looked up)
chain: MCNTNMSVPTDGAVTTSQIPASEQETLVRPKPLLLKLLKSVGAQKDTYTMKEVLFYLGQYIMTKRLYDEKQQHIVYCSNDLLGDLFGVPSFSVKEHRKIYTMIYRNLVVVNQQESSDSGTSVSEN
B1 yielded a Kd in the assay with wt-p53 (1–321 aa) of 0.6 ± 0.02 µM.

B2: recombinant PD-L1 (18–134 aa) (domain or fragment)
chain: AFTVTVPKDLYVVEYGSNMTIECKFPVEKQLDLAALIVYWEMEDKNIIQFVHGEEDLKVQHSSYRQRARLLKDQLSLGNAALQITDVKLQDAGVYRCMISYGGADYKRITVKVNAPY
Turning to B2, the results for the Kd (in the assay with (N66A)PD-1; in assay [1]) were more than 100 µM and 8 µM, respectively.

One may read the Kd as the concentration at which binding is half-saturated.
